Like-named read-outs stand apart in the source and are kept apart here.
T1: Endogenous human IL-33 (human, UniProt O95760 1-270, limits assumed)
T1 sequence (looked up): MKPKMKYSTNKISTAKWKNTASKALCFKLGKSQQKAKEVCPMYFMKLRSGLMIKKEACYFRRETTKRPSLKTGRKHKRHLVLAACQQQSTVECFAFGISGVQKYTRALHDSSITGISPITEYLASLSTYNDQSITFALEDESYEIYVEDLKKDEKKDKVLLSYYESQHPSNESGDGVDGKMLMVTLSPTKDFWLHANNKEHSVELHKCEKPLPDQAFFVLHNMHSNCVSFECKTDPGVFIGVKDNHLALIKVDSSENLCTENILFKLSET

T2: His10/Avi Human IL33-01 (human)
T2 chain: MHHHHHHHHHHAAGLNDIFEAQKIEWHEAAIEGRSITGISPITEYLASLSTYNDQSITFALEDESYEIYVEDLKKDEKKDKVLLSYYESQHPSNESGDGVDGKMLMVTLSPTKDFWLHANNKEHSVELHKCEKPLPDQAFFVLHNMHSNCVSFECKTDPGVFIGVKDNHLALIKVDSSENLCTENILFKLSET

T3: Recombinant human IL-33 (construct not named in the example) (human, UniProt O95760 112-270, limits assumed)
T3 construct: also called Recombinant, enzymatically biotinylated human IL-33 (produced in-house); IL-33 (200 nM)
T3 sequence (looked up): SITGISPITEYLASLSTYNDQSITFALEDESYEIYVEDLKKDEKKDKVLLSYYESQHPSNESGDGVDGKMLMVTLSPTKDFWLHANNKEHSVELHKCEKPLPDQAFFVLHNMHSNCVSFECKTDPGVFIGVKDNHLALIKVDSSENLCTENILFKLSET

B1: 33_640087-7B IgG1 (antibody, V domains shown)
VH: EVQLLESGGGLVQPGGSLRLSCAASGFTFSSYAMSWVRQAPGKGLEWVSGISAIDQSTYYADSVKGRFTISRDNSKNTLYLQMNSLRAEDTAVYYCARQKFMQLWGGGLRYPFGYWGQGTMVTVSS
VL: SYVLTQPPSVSVSPGQTASITCSGEGMGDKYAAWYQQKPGQSPVLVIYRDTKRPSGIPERFSGSNSGNTATLTISGTQAMDEADYYCGVIQDNTGVFGGGTKLTVL
notes: IgG1
B2: Human IL-33 Flag®His (ligand)
chain: SITGISPITEYLASLSTYNDQSITFALEDESYEIYVEDLKKDEKKDKVLLSYYESQHPSNESGDGVDGKMLMVTLSPTKDFWLHANNKEHSVELHKCEKPLPDQAFFVLHNMHSNCVSFECKTDPGVFIGVKDNHLALIKVDSSENLCTENILFKLSETNPAFLYKVVGAADYKDDDDKAAHHHHHHHHHH
notes: Mature IL-33 with C-terminal FLAG 10xHis tag, from E. coli; biotinylated via free cysteines where used biotinylated; also called Mature Human IL-33_FH; human IL-33 FH

Experiments:
Endogenous human IL-33 = molecular target: T1, Endogenous human IL-33; assay: cell-based or functional assay
His10/Avi Human IL33-01 [1] = molecular target: T2, His10/Avi Human IL33-01; assay: cell-based or functional assay
His10/Avi Human IL33-01 [2] = molecular target: T2, His10/Avi Human IL33-01; assay: HTRF competition: purified IgG against FLAG-His human ST2 for biotinylated IL33-01, overnight incubation
[3] = molecular target: T3, Recombinant human IL-33 (construct not …); assay: KinExA 3200, IgG at 5 pM and 500 fM equilibrated with IL-33, 25 C
Description: The affinity of the antibody 33_640087-7B was measured by kinetic exclusion assays performed on the KinExA 3200. The sampling beads were prepared by mixing 200 mg of dry UltraLink Biosupport Azlactone beads with 110 μg of IL-33 (as mentioned previously) in 2.5 ml of 50 mM sodium hydrogen bicarbonate pH 8.4 at room temperature for 2 hours with constant agitation. The beads were rinsed and blocked with 10 mg/ml BSA in 1M Tris pH 8.7. Prior to use, the beads were resuspended into D-PBS, 0.02% sodium azide. 33_640087-7B/IL-33 equilibrium mixtures were prepared in sample buffer composed of 1 mg/ml BSA, 0.02% sodium azide in DPBS (Dulbecco's PBS). […] The fluorescent secondary detection reagent was Alexa Fluor 647 goat anti-human-Fc diluted in 1 mg/ml BSA, 0.02% sodium azide, 0.1% Tween 20 in DPBS. The samples were run on the KinExA whilst housed in a temperature controlled cabinet set at 25° C. The data was analysed using the KinExA Pro software version 4.1.11.

33_640237-2B IgG1 = molecular target: T4, 33_640237-2B IgG1; assay: HTRF: unlabelled test protein competes with biotinylated human IL33-01 for DyLight650 labelled 33_640237-2B IgG
T4 construct: IgG1
Description: (§1) Human, cyno and mouse IL-33 FLAG® His (described in Example 1 and Table 21), Human IL-1 alpha and IL-1 beta (R&D Systems) (Table 21) or rat IL-33 (GenScript) were tested for inhibition of human IL-33 binding to DyLight650 labelled 33_640087-7B or DyLight650 labelled 33_640237-2B by adding 5 microlitres of each dilution of sample to a 384 well low volume assay plate (Costar, 3673). […] This was followed by the addition of 2.5 microlitres of a solution containing 0.12 nM biotinylated human IL-33-01 combined with 0.75 nM streptavidin cryptate detection (Cisbio International, 610SAKLB). All dilutions were performed in assay buffer containing 0.8 M potassium fluoride (VWR, 26820.236) and 0.1% bovine serum albumin (BSA, PAA, K05-013) in Dulbeccos PBS (Invitrogen, 14190185). Assay plates were incubated for 4 hours at room temperature followed by 18 hours at 4 degrees Celsius and time resolved fluorescence was read at 620 nm and 665 nm emission wavelengths using an EnVision plate reader (Perkin Elmer). Data were analysed by calculating the 665/620 nm ratio followed by the % Delta F values for each sample. The 665/620 nm ratio was used to correct for sample interference using Equation 1. The % Delta F for each sample was then calculated using Equation 2. The negative control (non-specific binding) was defined by replacing biotinylated human IL-33 combined with streptavidin cryptate detection with streptavidin cryptate detection only. The % Delta F values were subsequently used to calculate % specific binding as described in Equation 3. IC₅₀ values were determined using GraphPad Prism software by curve fitting using a four-parameter logistic equation (Equation 4).

33_640087-7B IgG1 = molecular target: B1; assay: HTRF: unlabelled test protein competes with biotinylated human IL33-01 for DyLight650 labelled 33_640087-7B IgG
Description: as §1, with “The negative control (non-specific binding) was defined by replacing biotinylated human IL-33 combined with streptavidin cryptate detection with streptavidin cryptate detection only. The % Delta F values were subsequently used to calculate % specific binding as described in Equation 3.” left out

33v20064 IgG1 [4] = molecular target: T5, 33v20064 IgG1; assay: HTRF: unlabelled test protein competes with biotinylated human IL33-01 for DyLight labelled 33v20064 IgG
T5 construct: IgG1; also called ZZ1EBX-E05
T5 sequence (VL, as listed by the source): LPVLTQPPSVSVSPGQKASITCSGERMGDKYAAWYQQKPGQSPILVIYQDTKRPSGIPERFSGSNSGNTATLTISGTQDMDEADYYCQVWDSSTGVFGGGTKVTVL
Description: (§2) Human, cyno and mouse IL-33 FLAG® His (described in Example 1) were tested for inhibition of human IL-33 binding to DyLight labelled 33v20064 by adding 5 microlitres of each dilution of IL-33 sample to a 384 well low volume assay plate (Costar, 3673). […] This was followed by the addition of 2.5 microlitres of a solution containing 1.2 nM biotinylated human IL-33-01 combined with 1.5 nM streptavidin cryptate detection (Cisbio International, 610SAKLB). All dilutions were performed in assay buffer containing 0.8 M potassium fluoride (VWR, 26820.236) and 0.1% bovine serum albumin (BSA, PAA, K05-013) in Dulbeccos PBS (Invitrogen, 14190185). Assay plates were incubated for 1 hour at room temperature and time resolved fluorescence was read at 620 nm and 665 nm emission wavelengths using an EnVision plate reader (Perkin Elmer). Data were analysed by calculating the 665/620 nm ratio followed by the % Delta F values for each sample. The 665/620 nm ratio was used to correct for sample interference using Equation 1. The % Delta F for each sample was then calculated using Equation 2. The negative control (non-specific binding) was defined by replacing biotinylated human IL-33 combined with streptavidin cryptate detection with streptavidin cryptate detection only. […] IC₅₀ values were determined using GraphPad Prism software by curve fitting using a four-parameter logistic equation (Equation 4).

33v20064 IgG1 [5] = molecular target: T5, 33v20064 IgG1; assay: as above; remark: listed apart in the source
Description: as §2

| Binder | IC50, Huvec IL-8 release stimulated by human lung lysate (Endogenous human IL-33) | IC50 (nM) vs. His Avi IL-33, Huvec IL-8 assay (His10/Avi Human IL33-01 [1]) | IC50 (read off the curve) (His10/Avi Human IL33-01 [2]) | Kd [3] | IC50 (read off the curve) (33_640237-2B IgG1) | IC50 (read off the curve) (33_640087-7B IgG1) | IC50 (read off the curve) (33v20064 IgG1 [4]) | IC50 (read off the curve) (33v20064 IgG1 [5]) |
| --- | --- | --- | --- | --- | --- | --- | --- | --- |
| B1 | 13 pM | 0.046 nM | ~400 pM | 0.03 pM | – | – | – | – |
| B2 | – | – | – | – | ~1000 pM | ~700 pM | ~100000 pM | ~200000 pM |
